The target of this assay is Quiescin-sulfhydryl oxidase (QSOX), recombinant human (human) (UniProt O00391). In words: SPR; Biacore 3000; […]; 30 ul/min in PBS, 0.05% Tween 20, 3 mM EDTA at 25°C; 1:1 Langmuir model; […]. For orientation: Surface plasmon resonance follows binding to a sensor surface in real time, without labels.
Chain of Quiescin-sulfhydryl oxidase (QSOX), recombinant human (human) (O00391 30-709): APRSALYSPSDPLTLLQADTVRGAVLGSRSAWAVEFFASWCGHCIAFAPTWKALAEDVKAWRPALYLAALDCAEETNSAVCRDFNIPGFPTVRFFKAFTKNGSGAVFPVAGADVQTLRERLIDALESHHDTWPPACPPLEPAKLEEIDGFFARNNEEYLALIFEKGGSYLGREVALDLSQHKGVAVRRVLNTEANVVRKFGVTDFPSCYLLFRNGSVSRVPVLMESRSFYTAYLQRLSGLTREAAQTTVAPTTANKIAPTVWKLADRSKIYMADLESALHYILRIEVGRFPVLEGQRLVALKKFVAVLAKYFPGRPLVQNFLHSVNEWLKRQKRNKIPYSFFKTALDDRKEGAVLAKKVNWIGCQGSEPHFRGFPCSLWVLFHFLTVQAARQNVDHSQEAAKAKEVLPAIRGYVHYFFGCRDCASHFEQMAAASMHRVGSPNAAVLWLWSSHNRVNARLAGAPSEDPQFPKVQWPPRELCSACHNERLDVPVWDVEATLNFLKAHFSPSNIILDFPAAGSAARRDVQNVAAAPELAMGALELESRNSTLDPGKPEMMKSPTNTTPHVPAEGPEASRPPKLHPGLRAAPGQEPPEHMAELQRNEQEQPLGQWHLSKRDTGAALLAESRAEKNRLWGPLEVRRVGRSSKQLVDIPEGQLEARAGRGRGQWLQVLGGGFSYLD

Chain of unfolded N-terminal region of human PrP, HuPrP(23-145) (P04156 23-145): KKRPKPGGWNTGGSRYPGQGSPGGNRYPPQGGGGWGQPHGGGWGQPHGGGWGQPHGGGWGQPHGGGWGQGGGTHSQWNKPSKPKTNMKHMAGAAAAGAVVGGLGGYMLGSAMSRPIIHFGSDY

Consider “unfolded N-terminal region of human PrP, HuPrP(23-145) (from UniProt P04156 23-145) (domain or fragment)”, for which the Kd came to 3.6 nM, the koff was 4.78e-05 s⁻¹ and the kon came out at 13200 M⁻¹ s⁻¹.

By Kd is commonly meant the equilibrium constant for the complex coming apart. Usually koff stands for the first-order rate constant of dissociation. One may read the kon as the rate constant with which the complex forms.

(Values after publication PMC5270677.)
